Test results from article PMC5793714, “Functional implications of corticosteroid-binding globulin N-glycosylation” (Journal of Molecular Endocrinology, 2017).

Experiments:
Western blot of medium = details: glycan lost, control: untreated CHO-S cells
[1] = Western blot of culture medium; details: glycan lost; control: rat CBG
[2] = loss of cortisol-binding capacity after protease incubation; details: glycan lost; control: un-mutated CBG

B1: rat CBG: tunicamycin (protein)
parent chain: MSLALYTCLLWLCTSGLWTAQASTNESSNSHRGLAPTNVDFAFNLYQRLVALNPDKNTLISPVSISMALAMVSLGSAQTQSLQSLGFNLTETSEAEIHQSFQYLNYLLKQSDTGLEMNMGNAMFLLQKLKLKDSFLADVKQYYESEALAIDFEDWTKASQQINQHVKDKTQGKIEHVFSDLDSPASFILVNYIFLRGIWELPFSPENTREEDFYVNETSTVKVPMMVQSGSIGYFRDSVFPCQLIQMDYVGNGTAFFILPDQGQMDTVIAALSRDTIDRWGKLMTPRQVNLYIPKFSISDTYDLKDMLEDLNIKDLLTNQSDFSGNTKDVPLTLTMVHKAMLQLDEGNVLPNSTNGAPLHLRSEPLDIKFNKPFILLLFDKFTWSSLMMSQVVNPA
With B1 the “expression_or_secretion, other: % of untreated” value (Western blot of medium) was “decreases”.

B2: rat CBG: N230D (protein)
parent chain: MSLALYTCLLWLCTSGLWTAQASTNESSNSHRGLAPTNVDFAFNLYQRLVALNPDKNTLISPVSISMALAMVSLGSAQTQSLQSLGFNLTETSEAEIHQSFQYLNYLLKQSDTGLEMNMGNAMFLLQKLKLKDSFLADVKQYYESEALAIDFEDWTKASQQINQHVKDKTQGKIEHVFSDLDSPASFILVNYIFLRGIWELPFSPENTREEDFYVNETSTVKVPMMVQSGSIGYFRDSVFPCQLIQMDYVGNGTAFFILPDQGQMDTVIAALSRDTIDRWGKLMTPRQVNLYIPKFSISDTYDLKDMLEDLNIKDLLTNQSDFSGNTKDVPLTLTMVHKAMLQLDEGNVLPNSTNGAPLHLRSEPLDIKFNKPFILLLFDKFTWSSLMMSQVVNPA
With B2 the expression_or_secretion [1] was “no change”.

B3: human CBG (corticosteroid-binding globulin): tunicamycin (human CBG) (protein)
parent chain: MPLLLYTCLLWLPTSGLWTVQAMDPNAAYVNMSNHHRGLASANVDFAFSLYKHLVALSPKKNIFISPVSISMALAMLSLGTCGHTRAQLLQGLGFNLTERSETEIHQGFQHLHQLFAKSDTSLEMTMGNALFLDGSLELLESFSADIKHYYESEVLAMNFQDWATASRQINSYVKNKTQGKIVDLFSGLDSPAILVLVNYIFFKGTWTQPFDLASTREENFYVDETTVVKVPMMLQSSTISYLHDSELPCQLVQMNYVGNGTVFFILPDKGKMNTVIAALSRDTINRWSAGLTSSQVDLYIPKVTISGVYDLGDVLEEMGIADLFTNQANFSRITQDAQLKSSKVVHKAVLQLNEEGVDTAGSTGVTLNLTSKPIILRFNQPFIIMIFDHFTWSSLFLARVMNPV
In the case of B3, the “expression_or_secretion, other: % of untreated” value (Western blot of medium; same construct) is reported as “decreases”.

B4: human CBG (corticosteroid-binding globulin): tunicamycin (CBG N238) (protein)
parent chain: MPLLLYTCLLWLPTSGLWTVQAMDPNAAYVNMSNHHRGLASANVDFAFSLYKHLVALSPKKNIFISPVSISMALAMLSLGTCGHTRAQLLQGLGFNLTERSETEIHQGFQHLHQLFAKSDTSLEMTMGNALFLDGSLELLESFSADIKHYYESEVLAMNFQDWATASRQINSYVKNKTQGKIVDLFSGLDSPAILVLVNYIFFKGTWTQPFDLASTREENFYVDETTVVKVPMMLQSSTISYLHDSELPCQLVQMNYVGNGTVFFILPDKGKMNTVIAALSRDTINRWSAGLTSSQVDLYIPKVTISGVYDLGDVLEEMGIADLFTNQANFSRITQDAQLKSSKVVHKAVLQLNEEGVDTAGSTGVTLNLTSKPIILRFNQPFIIMIFDHFTWSSLFLARVMNPV
For B4, the “expression_or_secretion, other: % of untreated” value (Western blot of medium; same construct) was “decreases”.

B5: human CBG (corticosteroid-binding globulin): T349A (protein)
parent chain: MPLLLYTCLLWLPTSGLWTVQAMDPNAAYVNMSNHHRGLASANVDFAFSLYKHLVALSPKKNIFISPVSISMALAMLSLGTCGHTRAQLLQGLGFNLTERSETEIHQGFQHLHQLFAKSDTSLEMTMGNALFLDGSLELLESFSADIKHYYESEVLAMNFQDWATASRQINSYVKNKTQGKIVDLFSGLDSPAILVLVNYIFFKGTWTQPFDLASTREENFYVDETTVVKVPMMLQSSTISYLHDSELPCQLVQMNYVGNGTVFFILPDKGKMNTVIAALSRDTINRWSAGLTSSQVDLYIPKVTISGVYDLGDVLEEMGIADLFTNQANFSRITQDAQLKSSKVVHKAVLQLNEEGVDTAGSTGVTLNLTSKPIILRFNQPFIIMIFDHFTWSSLFLARVMNPV
With B5 the “other: protease susceptibility” value [2] was “increases”.

B6: human CBG (corticosteroid-binding globulin): N347Q (protein)
parent chain: MPLLLYTCLLWLPTSGLWTVQAMDPNAAYVNMSNHHRGLASANVDFAFSLYKHLVALSPKKNIFISPVSISMALAMLSLGTCGHTRAQLLQGLGFNLTERSETEIHQGFQHLHQLFAKSDTSLEMTMGNALFLDGSLELLESFSADIKHYYESEVLAMNFQDWATASRQINSYVKNKTQGKIVDLFSGLDSPAILVLVNYIFFKGTWTQPFDLASTREENFYVDETTVVKVPMMLQSSTISYLHDSELPCQLVQMNYVGNGTVFFILPDKGKMNTVIAALSRDTINRWSAGLTSSQVDLYIPKVTISGVYDLGDVLEEMGIADLFTNQANFSRITQDAQLKSSKVVHKAVLQLNEEGVDTAGSTGVTLNLTSKPIILRFNQPFIIMIFDHFTWSSLFLARVMNPV
With B6 the “other: protease susceptibility” value [2] was “increases”.
